Data on 11 molecules can be found in publication PMC9811221 (2022).

B1: VHH22 (VHH)
VHH: EVQLVESGGGLVQAGGSLKLSCAASGRTFSGNTMGWFRQAPGKERELVTVVSSGGSTYYSDSVKGRFTISRDNALNTVYLQMNSLKPEDTAVYYCAAASLISGLTTTRRLFDYWGQGTQVTVSS
B2: VHH17 (VHH)
VHH: EVQLVESGGGLVQAGGSLRLSCAASGRTFSAYAMGWFRQAPGKERELVAGISWSGGMTYYADSVKGRFTISRDNAKNMVYLQMNSLKAEDTAVYYCAGGFSAVVPDHPDEYHYWGQGTQVTVSS
B3: VHH14 (VHH)
VHH: EVQLVESGGGLVQAGDSLRLSCTASARTFIKYAMGWFRQAPGKEREFVAAISWSGSRTTYADSVKGRFTISRDNDKNTVYLQMNTLEPEDTAIYYCAKAKGGYHSSQYDYDYWGQGTQVTVSS
B4: VHH10 (VHH)
VHH: EVQLVESGGGLVQAGDSLRLSCAASGRAFSGYAMAWFRQAPEKEREFVAAITWRGGTPYYAVRAKGRFTISRDSAKNTAYLEVNSLKPEDTATYYCAAPSLQVATMDVKDYAYWGQGTLVTVSS
B5: VHH2 (VHH)
VHH: QVQLVESGGGSVQPGGSLRLSCAASGSIVGHAVQAWYRQAPGKQRDLVAQLFDNGKTNIADSVKGRFTISGDNAKNTFYLQMNNLKPEDTAIYYCAILILPSMGVPPNIYEGQGTQVTVSS
B6: VHH21 (VHH)
VHH: EVQLVESGGGLVQTGGSLRLSCAASGRTFDSYFMGWFRQAPGKEREFVAAISGSGSLTSYEDGVKGRFTISRDNAKNTVSLQMTNLKPEDTAVYYCASCLSCAFINGRQVDSRYYNYWGQGTQVTVSS
B7: VHH18 (VHH)
VHH: EVQLVESGGGWVQTGGSLRLSCAASGSTFDIKRMAWYRQAPGKEREFVADIWSEGSTHYADSVKGRFTISRDSAKNTMYLYMNSLKPEDTAVYYCNVEYVLRTYWGQGTQVTVSS
B8: VHH20 (VHH)
VHH: EVQLVESGGGSVQAGGSLRLSCVASGIAFSESPMAWYRQAPGRQREFVADVSADNKPYYRDTLKGRFTISRDNDKNSVYLQMNFLQPEDTAVYYCNALLLEAGTIKNYWGQGTQVTVSS
B9: VHH16 (VHH)
VHH: QVQLVESGGGWVQTGGSLRLSCAASGSTFDIKRMAWYRQAPGKEREFVADIWSEGSTHYADSVKGRFTISRDSAKNTMYLQMNSLKPEDTAAYYCNVGNTWGQGTQVTVSS
B10: VHH13 (VHH)
VHH: EVQLVESGGGLVQPGGSLRLSCAASGSTFSINAMGWYRQAPGKQRELVAAISSGGSTNYADSVKGRFTISRDNAKNTVYLQMNSLKPEDTAVYYCNTINIGTFISLGGSPLGSWGQGTQVTVSS
B11: VHH19 (VHH)
VHH: EVQLVESGGGSVQAGASLRLSCAASGFPFSHYAIGWFRQAPGKEREFVTSIDRSGINTYYADSVKGRFTISRDNAKNAVSLQMNSLKPDDTAVYYCAAGPRLVTSPELYPYWGQGTQVTVSS

The target of the assay is PD-L1-Fc fusion protein (Invitrogen) (human, UniProt Q9NZQ7 19-238). In words: BLI.
PD-L1-Fc fusion protein (Invitrogen), sequence (Q9NZQ7 19-238): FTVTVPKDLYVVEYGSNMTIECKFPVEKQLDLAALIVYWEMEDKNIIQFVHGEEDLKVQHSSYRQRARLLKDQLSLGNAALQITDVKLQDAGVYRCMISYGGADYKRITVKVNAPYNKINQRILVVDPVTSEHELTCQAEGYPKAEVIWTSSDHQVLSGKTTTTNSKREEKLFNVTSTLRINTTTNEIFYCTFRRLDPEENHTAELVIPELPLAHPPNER
Take B1: the dissociation constant (Kd) was 2700 nM.
The same measure for B2: 330 nM.
B3 showed a dissociation constant (Kd) of 290 nM.
Then B4, with 190 nM; and B5, with 2200 nM; and B6, with 5100 nM.
Regarding B7, the Kd turned out to be 720 nM.
The same measure for B8: 340 nM.
Then B9, with 180 nM; and B10, with 1300 nM; and B11, with 1600 nM.

What is called Kd is the constant that tells how readily two partners part at equilibrium. A lower Kd goes with tighter binding.
